Assay results: the supplement of paper PMC10724198
± gives the standard deviation of the averaged measurements.

These sequences were tested on Saccharomyces cerevisiae (assay: protein stability index of tFT-peptide fusion (C-terminal peptide) (PSI (0-1 scale)); higher = more stable (slower turnover)). Settings: genetic background: cdc34-1; temperature: 37 C.
Experimental: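 MPS profiling in S. cerevisiae of the tFT-X12 degron library: putative degron peptides plus stable controls, 12 aa, fused to the C-terminus of a sfGFP-mCherry timer. Cells are FACS-sorted into 8 mCherry/sfGFP bins and deep-sequenced. PSI runs from 0 (unstable) to 1 (stable). Backgrounds are wild type, das1Δ and doa10Δ at 30 °C, and wild type, das1Δ, cdc34-1 and cdc53-1 at 37 °C; 2-3 technical replicates each.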
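Further: PSI is a weighted mean of sequencing reads over stability bins, variants kept only with over 10 reads, mCherry proximal and sfGFP distal, peptide attached via GGGS linker.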

Sequence	protein stability index
FFSFLFLLLFGA	0.566 ± 0.016
FPPCSFLGFLVF	0.69 ± 0.027
GAVGRWGWVSFV	0.699 ± 0.038
GFTIFFFFFFFV	0.227 ± 0.043

Same assay, conditions: genetic background: cdc53-1; temperature: 37 C

Sequence	protein stability index
FFSFLFLLLFGA	0.643 ± 0.0069
FPPCSFLGFLVF	0.768 ± 0.014
GAVGRWGWVSFV	0.7732 ± 0.0059
GFTIFFFFFFFV	0.234 ± 0.018

Same assay, conditions: genetic background: das1 deletion; temperature: 30 C

Sequence	protein stability index
FFSFLFLLLFGA	0.556 ± 0.018
FPPCSFLGFLVF	0.571 ± 0.023
GAVGRWGWVSFV	0.653 ± 0.014
GFTIFFFFFFFV	0.193 ± 0.035

Same assay, conditions: genetic background: das1 deletion; temperature: 37 C

Sequence	protein stability index
FFSFLFLLLFGA	0.619 ± 0.07
FPPCSFLGFLVF	0.73 ± 0.014
GAVGRWGWVSFV	0.7883 ± 0.0033
GFTIFFFFFFFV	0.266 ± 0.045

Same assay, conditions: genetic background: doa10 deletion; temperature: 30 C

Sequence	protein stability index
FFSFLFLLLFGA	0.555 ± 0.016
FPPCSFLGFLVF	0.556 ± 0.018
GAVGRWGWVSFV	0.337 ± 0.0076
GFTIFFFFFFFV	0.287 ± 0.056

Same assay, conditions: genetic background: wild type; temperature: 30 C

Sequence	protein stability index
FFSFLFLLLFGA	0.5673 ± 0.0056
FPPCSFLGFLVF	0.556 ± 0.014
GAVGRWGWVSFV	0.357 ± 0.025
GFTIFFFFFFFV	0.165 ± 0.0033

Same assay, conditions: genetic background: wild type; temperature: 37 C

Sequence	protein stability index
FFSFLFLLLFGA	0.617 ± 0.046
FPPCSFLGFLVF	0.688 ± 0.034
GAVGRWGWVSFV	0.638 ± 0.052
GFTIFFFFFFFV	0.264 ± 0.0077

Each sequence was assayed on Saccharomyces cerevisiae in the same assay as above. Settings: genetic background: wild type; temperature: 30 C.

Sequence	protein stability index
VVQLSKWSTIIR	0.64 ± 0.061
VVRHWRRMTGDA	0.629 ± 0.12
VVRLGSNYYGGT	0.756 ± 0.004
VVRWFGGGGVRG	0.719 ± 0.1
VVSGIFQVLATC	0.614 ± 0.084
VVSHRGVGKGEG	0.607 ± 0.047
VVSLGLGGFVVR	0.719 ± 0.033
VVTGVRFGVGSI	0.697 ± 0.039
VVVGGVWIRRVW	0.654 ± 0.052
VVVGPVTKRGGH	0.68 ± 0.046
VVVQSGSSYKEY	0.7 ± 0.11
VVVVCSWPVSLL	0.5744 ± 0.0042
VVVVSGFKGSCL	0.637 ± 0.065
VVWRRVIGGLVM	0.637 ± 0.031
VVWSWCWEYAAV	0.625 ± 0.013
VWCWCGWGVWGL	0.629 ± 0.063
VWFLSYLSVIFP	0.58 ± 0.04
VWGGWRRGRAWW	0.72411 ± 0.00051
VWGLGGEFWWGV	0.745 ± 0.014
VWGQGTPFRVVM	0.655 ± 0.091
VWGTVCSMRREG	0.63 ± 0.028
VWLLSNGFLAVD	0.706 ± 0.049
VWRHSGRVASLA	0.624 ± 0.0098

Sequence	protein stability index
VWTITGFIPVVF	0.517 ± 0.032
VYEGIQEKTTRQ	0.5754 ± 0.0057
VYHQLNDRLSLG	0.70389 ± 0.00025
VYTFGASKSMLG	0.629 ± 0.035
VYVFGCVVGSGW	0.639 ± 0.032
WAAGLRVCRSVL	0.704 ± 0.052
WAASGGAARYAP	0.684 ± 0.037
WADAAYLGCWWD	0.737 ± 0.072
WAFGFLFISSAM	0.5077 ± 0.0014
WAGGRHCKGVVV	0.681 ± 0.13
WARGVAASGRFV	0.6916 ± 0.0025
WASRSGPRVTLI	0.71 ± 0.018
WCGDVLWLMSCG	0.714 ± 0.016
WCGQVFWCVKES	0.699 ± 0.039
WCLDCVGFSLPE	0.687 ± 0.054
WCRVCNRLVVGV	0.5258 ± 0.0015
WDSGRWSCLRGW	0.698 ± 0.044
WDVVECCLWRYR	0.681 ± 0.034
WERREGTGMRAG	0.748 ± 0.051
WESGRNNWYMNK	0.798 ± 0.13
WEVLGGFVWASC	0.6828 ± 0.0045
WFLSGGCLFCWR	0.714 ± 0.061
WFPRLGKRSRGS	0.69 ± 0.025

Sequence	protein stability index
WFQSSLVCDTWL	0.681 ± 0.015
WFSSPVTISTRK	0.692 ± 0.11
WGAGGGVWWGGV	0.704 ± 0.03
WGAKGLESIHVM	0.6 ± 0.019
WGCAGVGGVGGG	0.6853 ± 0.0065
WGCGGGRDGCGV	0.647 ± 0.095
WGCGVRWGVDWA	0.732 ± 0.026
WGGASIGMGFGA	0.743 ± 0.036
WGGCNTALLTIL	0.581 ± 0.018
WGGFLVDFGFQG	0.757 ± 0.046
WGGLGRVWVKLG	0.706 ± 0.038
WGGLGWVWVKLG	0.685 ± 0.072
WGGTRCGGREVV	0.692 ± 0.054
WGGVGLWGGWDG	0.723 ± 0.058
WGGVRRHGVGGS	0.648 ± 0.1
WGLIASGSIVIV	0.548 ± 0.05
WGPGGRLGVGHV	0.676 ± 0.039
WGRARCAVGVSG	0.629 ± 0.0092
WGRCVGLAGAAG	0.677 ± 0.027
WGREGRVPGWAG	0.671 ± 0.11
WGRGGSGGSWGA	0.688 ± 0.018
WGRGRGEMVGRT	0.705 ± 0.038
WGRGRWEMVGRT	0.693 ± 0.037

Sequence	protein stability index
WGRNRGASDPNL	0.7198 ± 0.0046
WGVGCVRGVWGA	0.714 ± 0.088
WGVGWVLEVLLG	0.529 ± 0.0066
WHSGVICQTVLM	0.651 ± 0.014
WICFDFLLPVAL	0.549 ± 0.025
WIDSGCALVEIA	0.701 ± 0.045
WIFPPLPPPLPR	0.7174 ± 0.0037
WILDKECFKECD	0.654 ± 0.046
WIPITSDKCNFK	0.709 ± 0.06
WKCHRTDSRKRW	0.726 ± 0.044
WKSSRSRCIHGE	0.707 ± 0.026
WKVFKGLSADVS	0.669 ± 0.026
WLGGGGTVAHSP	0.726 ± 0.1
WLPPPPPPSPSS	0.767 ± 0.0026
WLTNKYDNIVKD	0.7634 ± 0.0068
WLVADWLLALFW	0.627 ± 0.019
WLVGGGTVAHSP	0.77 ± 0.088
WLVPSGTRTGRV	0.678 ± 0.028
WLWYLSTRHSKL	0.7871 ± 0.0037
WPCVGWTLCSCS	0.541 ± 0.042
WPFHADPPPPVP	0.6969 ± 0.0026
WPGRAVCLGAGW	0.734 ± 0.056
WPSHVTLPYGLV	0.6545 ± 0.0057

Sequence	protein stability index
WQDTASNSNTTI	0.719 ± 0.024
WRCSAITASEYL	0.686 ± 0.032
WRDGSLKIKCML	0.756 ± 0.21
WRLGGGMVCVAS	0.566 ± 0.042
WRNTGSTYYMKV	0.723 ± 0.015
WRNVEITSGSPH	0.672 ± 0.063
WRRCSGGGVGSP	0.655 ± 0.084
WRRGMMGGLAIW	0.698 ± 0.012
WSGNYSNITRYI	0.66 ± 0.019
WSWTNDAFFGVV	0.681 ± 0.068
WTLSGHKHIPED	0.736 ± 0.013
WVAGPWLGRVQE	0.733 ± 0.0083
WVLFRNKSVAAS	0.527 ± 0.012
WVNGFCKKGSGH	0.713 ± 0.015
WVRLITCVRCSR	0.594 ± 0.048
WVTLGMGGECMR	0.818 ± 0.14
WWGGGGGMQGVR	0.674 ± 0.0096
WWGLGGREPGGS	0.711 ± 0.072
WYCRWWGVRGGH	0.672 ± 0.1
WYFSSPPPFFSP	0.766 ± 0.058
WYGSYPLTLESY	0.613 ± 0.013
WYMKFYNKKMKE	0.702 ± 0.04
YALPPPPHPLSF	0.591 ± 0.018

Sequence	protein stability index
YASLPQSRPLSP	0.651 ± 0.013
YCSIVRSLGSPL	0.698 ± 0.065
YDLLLLLSLSRP	0.644 ± 0.012
YFGGMGARGRER	0.687 ± 0.0081
YFRYGLELVTFG	0.5004 ± 0.0013
YFSSSPVFPPHL	0.667 ± 0.16
YFWFSRGLSVFF	0.666 ± 0.0073
YGEGSPPCMPEL	0.709 ± 0.017
YGFFCFLPVFRG	0.661 ± 0.054
YGKELRRCKWVF	0.581 ± 0.0072
YGNSFLVRPPGD	0.712 ± 0.05
YGVRCSRINRSG	0.678 ± 0.059
YGVRGFKGYYGG	0.735 ± 0.0087
YHECWRTFTLCV	0.532 ± 0.007
YHSSHTGEFLFL	0.658 ± 0.053
YIIVSQRENRRQ	0.758 ± 0.095
YINQWLNVKHGD	0.635 ± 0.058
YISLQKGVMNEL	0.728 ± 0.008
YIVARMVRAVIP	0.741 ± 0.035
YKGNVRNPTLHA	0.655 ± 0.05
YKKKKEEKNKKN	0.583 ± 0.046
YKKKKKKKNNKK	0.662 ± 0.043
YKNKKKKKNNKK	0.661 ± 0.019

Sequence	protein stability index
YLADPSPSIPIL	0.649 ± 0.02
YLDVWTGLSCQD	0.683 ± 0.11
YLGRDYYVVLWG	0.7506 ± 0.0045
YLPRHPLPPFPV	0.681 ± 0.14
YLPWFADLHPGV	0.737 ± 0.073
YLSFDKSLLSQI	0.662 ± 0.029
YLSGHLGCRVRV	0.651 ± 0.067
YLSVPVGPAMAL	0.643 ± 0.1
YMAGGQCDRLPG	0.677 ± 0.055
YNRQVDFECHKF	0.698 ± 0.044
YNVRNVSVHQLG	0.644 ± 0.015
YPALCSRFFAPS	0.711 ± 0.039
YPGSCFLDTGIW	0.6666 ± 0.0062
YPNENFALLTEH	0.653 ± 0.046
YQGSFGLCRLML	0.808 ± 0.034
YRARTADRPRDQ	0.729 ± 0.039
YRIMRRKEKEER	0.669 ± 0.026
YRLAPPPHPPPP	0.576 ± 0.021
YRLVASSHLIFF	0.661 ± 0.027
YRQAAIKNIKRK	0.683 ± 0.014
YRQIIPSFTLGL	0.715 ± 0.036
YRSPRSSSGSSF	0.67 ± 0.041
YSDNIHIEFEDC	0.737 ± 0.068

Sequence	protein stability index
YSGYRASLVFEI	0.648 ± 0.099
YSIIYATGMRIL	0.626 ± 0.07
YSLETGIFVFHR	0.7027 ± 0.0068
YSLPPAPQPLPP	0.772 ± 0.092
YSPFGKRLLPPC	0.702 ± 0.057
YSTFIPYSPCTA	0.644 ± 0.013
YSVDGTGVGLWV	0.717 ± 0.016
YSWGVLSWLSFG	0.648 ± 0.0074
YTPEVSVFFFRT	0.6233 ± 0.0014
YTSFGSSLIPTT	0.652 ± 0.074
YTSPRSTGPSVG	0.732 ± 0.012
YTTFNLSQTLNG	0.674 ± 0.023
YTWVDKNDRTKR	0.736 ± 0.11
YWEVYAGLSLWV	0.63 ± 0.0048
YWGGWCGGWEIG	0.73 ± 0.034
YYAFITERYRHN	0.6069 ± 0.0046
YYCLRVRTINRR	0.703 ± 0.011
YYLCHIEEFLSS	0.622 ± 0.072
YYLPRPPRPTVL	0.623 ± 0.11
YYSTQTQATYRH	0.6773 ± 0.0025
